The chains are these.
B1: FBXO34 (parent)
chain: PRYREDPCKQCKKKYVKGDVSLCR
B2: KRT13 (parent)
chain: TPGIDLTRVLAEMREQYEAMAERN
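Also: lentivirally expressed fusions sorted by FACS into six bins by GFP to DsRed ratio, PSI derived from sequencing read proportions per bin multiplied by bin number.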

In the first data set the parent is B1. Description: protein stability index of a GFP-peptide fusion (GPS, HEK-293T) (PSI 1-6); higher = more stable. Particulars: c terminus: a fixed tail appended.
PRYREDPCKQCKKKYVKGDASLCR [V20A]: the protein stability index turned out to be 2.85.
Same read-out and setting: the figure for PRYREDPCKQCKKKYVKVDVSLCR [G18V] is 2.46; for PRYREDPCKQCKKKYVKTDVSLCR [G18T] it is 2.5; for PRYREDPCKQCKKKYVKMDVSLCR [G18M] it is 2.18.
The same measure, in the same setting: for PRYREDPCKQCKKKYVKFDVSLCR [G18F] the value was 2.16; for PRYREDPCKQCKKKYVKYDVSLCR [G18Y], 2.35; for PRYREDPCKQCKKKYVKNDVSLCR [G18N], 2.92.
Same read-out and setting: the figure for PRYREDPCKQCKKKYVKCDVSLCR [G18C] is 2.94.
Take PRYREDPCKQCKKKYVKEDVSLCR [G18E]: the protein stability index is 3.17.
On the same count and under the same terms, for PRYREDPCKQCKKKYVKRDVSLCR [G18R] the value was 3.31; for PRYREDPCKQCKKKYVKIDVSLCR [G18I], 2.35; for PRYREDPCKQCKKKYVKLDVSLCR [G18L], 2.25.
PRYREDPCKQCKKKYVKHDVSLCR [G18H]: the protein stability index amounted to 3.23.
Still for that read-out and setting: for PRYREDPCKQCKKKYVKQDVSLCR [G18Q] the value was 3.2; for PRYREDPCKQCKKKYVKWDVSLCR [G18W], 2.3; for PRYREDPCKQCKKKYVKPDVSLCR [G18P], 3.13.
Regarding PRYREDPCKQCKKKYVKKDVSLCR [G18K], the protein stability index stood at 2.69.
Still for that read-out and setting: for PRYREDPCKQCKKKYVKADVSLCR [G18A] the value was 2.54; for PRYREDPCKQCKKKYVKSDVSLCR [G18S], 2.92; for PRYREDPCKQCKKKYVKDDVSLCR [G18D], 2.86.
Still for that read-out and setting: for PRYREDPCKQCKKKYVKGDVSTCR [L22T] the value was 2.93; for PRYREDPCKQCKKKYVKGDVSQCR [L22Q], 2.32; for PRYREDPCKQCKKKYVKGDVSKCR [L22K], 3.6.
Same read-out and setting: the figure for PRYREDPCKQCKKKYVKGDVSVCR [L22V] is 3.23; for PRYREDPCKQCKKKYVKGDVSDCR [L22D] it is 3.01.
Turning to PRYREDPCKQCKKKYVKGDVSMCR [L22M], the protein stability index turned out to be 2.6.
Same read-out and setting: the figure for PRYREDPCKQCKKKYVKGDVSICR [L22I] is 3.12.
Same read-out and setting: the figure for PRYREDPCKQCKKKYVKGDVSNCR [L22N] is 3.01; for PRYREDPCKQCKKKYVKGDVSGCR [L22G] it is 3.18.
On the same count and under the same terms, the figure for PRYREDPCKQCKKKYVKGDVSSCR [L22S] is 3.29; for PRYREDPCKQCKKKYVKGDVSECR [L22E] it is 3.48; for PRYREDPCKQCKKKYVKGDVSCCR [L22C] it is 3.15.
As for PRYREDPCKQCKKKYVKGDVSRCR [L22R], the protein stability index stood at 3.31.
Same read-out and setting: the figure for PRYREDPCKQCKKKYVKGDVSFCR [L22F] is 2.58; for PRYREDPCKQCKKKYVKGDVSWCR [L22W] it is 2.08; for PRYREDPCKQCKKKYVKGDVSHCR [L22H] it is 2.88.
On the same count and under the same terms, the figure for PRYREDPCKQCKKKYVKGDVSYCR [L22Y] is 2.54; for PRYREDPCKQCKKKYVKGDVSPCR [L22P] it is 2.41.
On the same count and under the same terms, the figure for PRYREDPCKQCKKKYVKGDVSACR [L22A] is 3.12; for PRYREDPCKQCKKKYVTGDVSLCR [K17T] it is 2.67.
As for PRYREDPCKQCKKKYVYGDVSLCR [K17Y], the protein stability index stood at 2.29.
On the same count and under the same terms, for PRYREDPCKQCKKKYVWGDVSLCR [K17W] the value was 2.72; for PRYREDPCKQCKKKYVVGDVSLCR [K17V], 2.69.

Variants of B2 are the subject of the next data set. Described as above. The settings on record: c terminus: a fixed tail appended.
Turning to TPIIDLTRVLAEMREQYEAMAERN [G3I], the protein stability index came out at 3.38.
Same read-out and setting: for TPMIDLTRVLAEMREQYEAMAERN [G3M] the value was 2.38; for TPRIDLTRVLAEMREQYEAMAERN [G3R], 3.39; for TPFIDLTRVLAEMREQYEAMAERN [G3F], 2.28.
The same measure, in the same setting: the figure for TPAIDLTRVLAEMREQYEAMAERN [G3A] is 3.35; for TPHIDLTRVLAEMREQYEAMAERN [G3H] it is 3.35.
On the same count and under the same terms, for TPDIDLTRVLAEMREQYEAMAERN [G3D] the value was 3.1; for TPLIDLTRVLAEMREQYEAMAERN [G3L], 2.81; for TPEIDLTRVLAEMREQYEAMAERN [G3E], 2.78.
On to TPTIDLTRVLAEMREQYEAMAERN [G3T], for which the protein stability index was determined as 2.96.
The same measure, in the same setting: for TPNIDLTRVLAEMREQYEAMAERN [G3N] the value was 3.12; for TPPIDLTRVLAEMREQYEAMAERN [G3P], 2.67; for TPYIDLTRVLAEMREQYEAMAERN [G3Y], 2.34.
Still for that read-out and setting: the figure for TPCIDLTRVLAEMREQYEAMAERN [G3C] is 2.63.
On the same count and under the same terms, the figure for TPKIDLTRVLAEMREQYEAMAERN [G3K] is 1.99; for TPWIDLTRVLAEMREQYEAMAERN [G3W] it is 3.37.
In the case of TPQIDLTRVLAEMREQYEAMAERN [G3Q], the protein stability index was determined as 3.23.
Still for that read-out and setting: for TPVIDLTRVLAEMREQYEAMAERN [G3V] the value was 2.11; for TAGIDLTRVLAEMREQYEAMAERN [P2A], 4.17.
On the same count and under the same terms, for TLGIDLTRVLAEMREQYEAMAERN [P2L] the value was 2.86; for TKGIDLTRVLAEMREQYEAMAERN [P2K], 3.79.
The same measure, in the same setting: the figure for TIGIDLTRVLAEMREQYEAMAERN [P2I] is 2.54; for TSGIDLTRVLAEMREQYEAMAERN [P2S] it is 3.9.
With TCGIDLTRVLAEMREQYEAMAERN [P2C], the protein stability index was 3.36.
On to TWGIDLTRVLAEMREQYEAMAERN [P2W], for which the protein stability index came to 3.75.
Same read-out and setting: for TVGIDLTRVLAEMREQYEAMAERN [P2V] the value was 2.6.
Still for that read-out and setting: the figure for THGIDLTRVLAEMREQYEAMAERN [P2H] is 4.41.
Take TYGIDLTRVLAEMREQYEAMAERN [P2Y]: the protein stability index came out at 3.69.
Same read-out and setting: for TEGIDLTRVLAEMREQYEAMAERN [P2E] the value was 3.16; for TFGIDLTRVLAEMREQYEAMAERN [P2F], 2.79.
Same read-out and setting: for TMGIDLTRVLAEMREQYEAMAERN [P2M] the value was 2.97; for TNGIDLTRVLAEMREQYEAMAERN [P2N], 4.05; for TTGIDLTRVLAEMREQYEAMAERN [P2T], 3.81.
On the same count and under the same terms, for TDGIDLTRVLAEMREQYEAMAERN [P2D] the value was 3.69; for EPGIDLTRVLAEMREQYEAMAERN [T1E], 4.3.
For the variant HPGIDLTRVLAEMREQYEAMAERN [T1H], the protein stability index stood at 4.28.
On the same count and under the same terms, for DPGIDLTRVLAEMREQYEAMAERN [T1D] the value was 3.47; for SPGIDLTRVLAEMREQYEAMAERN [T1S], 3.49; for KPGIDLTRVLAEMREQYEAMAERN [T1K], 3.85.
On the same count and under the same terms, the figure for YPGIDLTRVLAEMREQYEAMAERN [T1Y] is 4.34.
Same read-out and setting: for LPGIDLTRVLAEMREQYEAMAERN [T1L] the value was 2.71; for WPGIDLTRVLAEMREQYEAMAERN [T1W], 3.5; for VPGIDLTRVLAEMREQYEAMAERN [T1V], 2.67.
For PPGIDLTRVLAEMREQYEAMAERN [T1P], the protein stability index was 4.16.
Same read-out and setting: the figure for QPGIDLTRVLAEMREQYEAMAERN [T1Q] is 3.13; for NPGIDLTRVLAEMREQYEAMAERN [T1N] it is 4.26.
The same measure, in the same setting: the figure for IPGIDLTRVLAEMREQYEAMAERN [T1I] is 4.36; for CPGIDLTRVLAEMREQYEAMAERN [T1C] it is 3.45; for GPGIDLTRVLAEMREQYEAMAERN [T1G] it is 4.59.
Still for that read-out and setting: for MPGIDLTRVLAEMREQYEAMAERN [T1M] the value was 3.9; for FPGIDLTRVLAEMREQYEAMAERN [T1F], 3.27.

Values taken from the supplement of paper PMC10567573.
